From the supplement of paper PMC9732359
± gives the uncertainty stated by the source.

Experiment: protein stability index of a GFP-peptide fusion (yeast GPS) (PSI 1-4); higher = more stable; sorted into four equal gates, so the index is relative within each strain
Method in brief: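 Mid-log yeast cultures in leucine-free medium, carrying a pooled plasmid library, were sorted into four equal gates by their GFP/Cherry fluorescence ratio. Each plasmid expressed Cherry along with GFP fused upstream of a tiled 17-residue yeast protein peptide. Plasmids recovered from each gate were PCR-amplified and Illumina-sequenced, with reads assigned to strains by barcodes. The protein stability index was obtained by summing each gate's read frequency weighted by its gate number.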

Row | Sequence | protein stability index (doa10∆) | protein stability index (pdr5∆) | protein stability index (san1∆) | protein stability index (ubr1∆)
1 | KELQLEKESVEKQHENA [SMC3] | 3.02 ± 0.14 | 3.32 ± 0.099 | 2.85 ± 0.071 | 3.15 ± 0.054
2 | DATYDSALELVGQLNKV [RPN6] | 3.11 ± 0.16 | 3.1 ± 0.11 | 3.27 ± 0.21 | 2.72 ± 0.28
3 | VEFCRNINSTDKSIDTS [YML103C/NUP188] | 3.08 ± 0.11 | 2.93 ± 0.091 | 3.39 ± 0.097 | 3.12 ± 0.053
4 | ELIIDKVTCSSNSSSSP [MED1] | 2.72 ± 0.058 | 2.75 ± 0.065 | 2.79 ± 0.054 | 2.72 ± 0.048
5 | KESQLPRIQRADPVALY [RPB5] | 2.32 ± 0.069 | 2.63 ± 0.058 | 2.5 ± 0.089 | 2.59 ± 0.048
6 | PQQSRYISFIKDDRFVP [RPN2] | 2.67 ± 0.055 | 2.87 ± 0.036 | 2.98 ± 0.044 | 3.11 ± 0.035
7 | EEEDAKNPLFSYVEPVL [RPL31A] | 2.88 ± 0.042 | 2.63 ± 0.036 | 2.12 ± 0.047 | 2.21 ± 0.026
8 | SKTDNIEDPNLSSNITF [YMR153W/NUP53] | 2.84 ± 0.084 | 2.81 ± 0.08 | 3 ± 0.064 | 3.27 ± 0.073
9 | VDSGEERNEQEREIMND [SWI3] | 3.42 ± 0.069 | 3.26 ± 0.064 | 3.02 ± 0.079 | 3.24 ± 0.11
10 | LKSAENSGKQQYYRGLP [SWP82] | 2.25 ± 0.1 | 2.24 ± 0.067 | 2.25 ± 0.21 | 2.75 ± 0.068
11 | DETYKGVEEVEGEYELT [RPL5] | 3.21 ± 0.16 | 3.43 ± 0.15 | 3.16 ± 0.23 | 2.82 ± 0.27
12 | SSEIDRENVKSKDEPVS [SIR4] | 3.13 ± 0.15 | 3.33 ± 0.12 | 2.92 ± 0.082 | 3.27 ± 0.086
13 | NQEDLFELVHHFFQIDG [YML103C/NUP188] | 2.97 ± 0.079 | 3.04 ± 0.065 | 2.85 ± 0.081 | 2.68 ± 0.051
14 | FRSYMDQEKKYGMSITE [RPB2] | 1.69 ± 0.054 | 2.43 ± 0.063 | 2.89 ± 0.065 | 2.75 ± 0.032
15 | LYSIREDYELSPQAVSS [PRE1] | 2.2 ± 0.13 | 2.83 ± 0.097 | 2.63 ± 0.062 | 2.38 ± 0.069
16 | IHPIPSVTVSQGNYVTE [YMR129W/POM152] | 2.21 ± 0.055 | 2.6 ± 0.066 | 2.58 ± 0.073 | 2.43 ± 0.043
17 | KVSPEELPLVITMPATN [ARP7] | 2.64 ± 0.053 | 2.68 ± 0.065 | 2.57 ± 0.053 | 2.57 ± 0.042
18 | EQERKELEKYNELERNR [SMC3] | 3.14 ± 0.14 | 3.05 ± 0.18 | 3.2 ± 0.11 | 3.24 ± 0.091
19 | IANFSRAGKYELVKSYS [YJR042W/NUP85] | 2.25 ± 0.094 | 2.09 ± 0.074 | 1.28 ± 0.13 | 1.45 ± 0.06
20 | DSLNQLEIRNKICSSEM [RGR1] | 2.24 ± 0.22 | 3.11 ± 0.11 | 2.65 ± 0.14 | 2.61 ± 0.22
21 | AKYETSILEHSGIRLIE [FAS2] | 3.32 ± 0.062 | 3.3 ± 0.063 | 3.09 ± 0.051 | 3.37 ± 0.052
22 | NRAEGPEELARILQQLK [RGR1] | 3.21 ± 0.11 | 3.17 ± 0.19 | 3.19 ± 0.12 | 3.62 ± 0.097
23 | LRIGRIEDVTPVPSDST [RPS14B] | 2.91 ± 0.037 | 2.98 ± 0.043 | 2.78 ± 0.04 | 2.92 ± 0.037
24 | PSKTPEVYMRYRNFMVN [SWI3] | 1.8 ± 0.075 | 1.81 ± 0.072 | 1.82 ± 0.14 | 1.81 ± 0.062
25 | DSIPLRITNSFYSTNSQ [RPN9] | 2.56 ± 0.14 | 2.65 ± 0.13 | 2.58 ± 0.18 | 2.9 ± 0.21
26 | ILNDSLIYHLKDCAEVD [IRR1] | 2.05 ± 0.056 | 2.28 ± 0.06 | 2.02 ± 0.09 | 1.71 ± 0.046
27 | MEGNAQPVNFNRSWDHA [RPO31] | 2.22 ± 0.11 | 2.31 ± 0.071 | 2.39 ± 0.13 | 2.35 ± 0.067

Row | Sequence | protein stability index (doa10∆) | protein stability index (pdr5∆) | protein stability index (san1∆) | protein stability index (ubr1∆)
28 | EAAAKEKDELDNIEVSK [QCR7] | 3.18 ± 0.098 | 3.41 ± 0.079 | 3.29 ± 0.084 | 3.22 ± 0.055
29 | QFIYAGKKASLNVGNVL [RPL2A] | 2.59 ± 0.092 | 2.81 ± 0.11 | 2.86 ± 0.11 | 2.8 ± 0.092
30 | CPNSTGAELRSVCTEAG [RPT1] | 1.54 ± 0.053 | 1.56 ± 0.058 | 1.65 ± 0.098 | 1.55 ± 0.047
31 | DLEKTERIVVSYEYYNI [SMC2] | 2.76 ± 0.073 | 2.6 ± 0.073 | 2.71 ± 0.074 | 2.67 ± 0.045
32 | YNRRQDKKNKRLKFGHR [SNF2] | 3.01 ± 0.092 | 3.14 ± 0.09 | 3.22 ± 0.093 | 3.09 ± 0.095
33 | DVAFLKTAYSIYLSQNE [RPN1] | 2.25 ± 0.052 | 2.51 ± 0.056 | 2.16 ± 0.062 | 2.64 ± 0.058
34 | EVSGSIQYKKEYEELKE [SMC1] | 3.59 ± 0.15 | 3.15 ± 0.14 | 3.29 ± 0.089 | 3.35 ± 0.068
35 | ETEQEYSPSNEISISFD [YDL116W/NUP84] | 2.65 ± 0.058 | 2.89 ± 0.067 | 2.52 ± 0.059 | 2.98 ± 0.048
36 | PPQDAEGWFYKRAASVA [RPS19A] | 2.9 ± 0.27 | 1.42 ± 0.11 | 1.53 ± 0.14 | 1.56 ± 0.11
37 | IDNGTGRTGNGNMGITT [MED6] | 2.92 ± 0.12 | 2.98 ± 0.061 | 3.25 ± 0.067 | 3.31 ± 0.043
38 | AFPNASKKNRPTLQVGD [RRP40] | 2.09 ± 0.19 | 2.75 ± 0.11 | 2.78 ± 0.16 | 2.99 ± 0.17
39 | EKLSSEIENLDKELRKT [YIL149C/MLP2] | 3.12 ± 0.11 | 3.21 ± 0.12 | 3.12 ± 0.069 | 3 ± 0.11
40 | GTGNNSAVKRLLHVAVS [RPN2] | 2.19 ± 0.24 | 2.51 ± 0.25 | – | 1.58 ± 0.15
41 | AGDLRALDTVTNVLNFI [FAS1] | 3.04 ± 0.1 | 3.22 ± 0.14 | 2.95 ± 0.11 | 2.54 ± 0.24
42 | DLIAEQVVTDYNILGNL [SSN2] | 2.52 ± 0.074 | 3.11 ± 0.077 | 2.28 ± 0.11 | 2.21 ± 0.063
43 | KRKLLEHRRYDDQLKQR [RPT4] | 2.04 ± 0.27 | 2.1 ± 0.22 | 1.42 ± 0.23 | 1.92 ± 0.17
44 | IRRAYLHYIPKYNRYEK [RPS11A] | 2.04 ± 0.07 | 1.72 ± 0.064 | 1.81 ± 0.1 | 1.85 ± 0.044
45 | TIVSNVEEKPGDRGALA [RPL2A] | 3.16 ± 0.095 | 3.1 ± 0.075 | 3.37 ± 0.058 | 3.4 ± 0.12
46 | NLLKNFISSNDAFNMLS [SNF6] | 1.61 ± 0.099 | 2 ± 0.061 | 1.97 ± 0.13 | 1.98 ± 0.043
47 | EPKLFRMRIFASNEVIA [RPL20A] | 2.19 ± 0.087 | 1.97 ± 0.054 | 1.82 ± 0.06 | 2.28 ± 0.036
48 | GCIPGNRKRIVTLRKSL [RPL3] | 1.38 ± 0.069 | 1.5 ± 0.083 | 1.6 ± 0.2 | 1.26 ± 0.061
49 | VTNSLSNEEKEKIKMKL [GAL11] | – | – | 3.1 ± 0.13 | –
50 | LQNDLIHKIQNDNNLKK [RPN5] | 2.96 ± 0.081 | 3.24 ± 0.068 | 3.11 ± 0.054 | 3.12 ± 0.065
51 | STDNEAITISNSIDINY [SMC1] | 2.62 ± 0.053 | 2.93 ± 0.057 | 2.67 ± 0.045 | 2.88 ± 0.039
52 | QLLGDVMTYKGEVLGIT [RPO31] | 3.28 ± 0.11 | 3.43 ± 0.069 | 3.24 ± 0.14 | 3.33 ± 0.075
53 | SRIVEIFALCIYNSTDS [YML103C/NUP188] | 1.2 ± 0.093 | 1.21 ± 0.086 | 1.52 ± 0.11 | 1.2 ± 0.057
54 | MGDELTRSHFNALYDTL [RPN6] | 2.3 ± 0.048 | 2.45 ± 0.067 | 2.67 ± 0.051 | 2.74 ± 0.044
